Data reported in patent US7667100B2, “Nucleic acid compositions conferring herbicide resistance” (Dow AgroSciences LLC, priority 2002, dated 2010).

How the values were obtained:
Nicotiana benthamiana [1] = test: Evaluation of auxin tolerance in greenhouse plants inoculated with clone transcript and sprayed with herbicide; type: in vivo; details: greenhouse; 30% or more of test population tolerant by 14 dat
Protocol: All primary hit sequences were evaluated for tolerance in larger plants, maintained under greenhouse conditions as described below.
Plant Growth and Maintenance. Nb seeds were sown in 6.5 cm pots filled with Redi-earth medium (The Scotts Company, Marysville, Ohio) pre-wetted by injection of Hoagland's fertilizer solution [all from the Scotts Company: 147 kg Peters Excel 15-15-15 Cal-Mag, 68 kg Peters Excel 15-0-0 Cal-Lite (15% Ca), and 45 kg Peters Excel 10-0-0 MagNitrate (10% Mg) in hot tap water to 596 L total volume] into irrigation water at a ratio of 200:1, using an injection system (H. E. Anderson, Muskogee Okla,). Seededpots were placed in the greenhouse for 1 day, transferred to a 27° C. germination chamber (Carolina Greenhouses, Kinston, N.C.) for 2 days, and then returned to the greenhouse. Shade curtains (33% transmittance) were used in the greenhouse to reduce solar intensity. To ensure 16 hour day length and supplement solar radiation on overcast days, artificial lighting consisting of a 1:1 mixture of metal halide and high pressure Sylvania sodium lamps was used, delivering approximately 220 μmol/m^2/s. Evaporative cooling and steam heat were used to maintain a daytime set point of 27° C. and a nighttime temperature of 22° C. At approximately 7 days post sowing (dps), seedlings were thinned to one seedling per pot and at 17 to 21 dps, the pots were spaced farther apart to accommodate plant growth. Plants were watered with Hoagland's solution as required. Following inoculation, waste irrigation water was collected and treated with 0.5% sodium hypochlorite for 10 minutes to neutralize any viral contamination before discharging into the municipal sewer.
Plant Inoculation. For each clone, 50 test plants as well as 10 GFP and bar (Thompson et al., EMBO J. 6:2519 [19870]) negative control plants were inoculated as follows: 2.0 mL of inoculum per clone were prepared by combining equal volumes of NCAP transcript and FES buffer [0.1 M glycine, 0.06 M K2HPO4, 1% sodium pyrophosphate, 1% diatomaceous earth (Sigma Chemical Company, St. Louis, Mo.), and either 1% silicon carbide (Aldrich Chemical Company, Milwaukee, Wis.), or 1% Bentonite (Sigma Chemical Company, St. Louis, Mo.)]. The inoculum was applied to each plant at 17 days post sowing by pipetting onto the upper surface of leaves 3 and 4 (˜20 μL per leaf). The inoculum was then spread across each leaf surface using a 3″ cotton tipped applicator (Calapro Swab, Fisher Scientific, Pittsburgh, Pa.) and a gloved finger to support the leaf. Following inoculation the plants were misted with deionized water.
Infection Scoring. At 8 days post inoculation (dpi), the plants were visually examined and a numerical score was assigned to each plant to indicate the extent of viral infection symptoms: 0=no infection, 1=possible infection, 2=infection symptoms limited to leaves <50-75% fully expanded, 3=typical systemic infection, 4=atypically severe infection, often accompanied by moderate to severe wilting and/or necrosis. Plants receiving an infection rating of 0, 1, or 4 were discarded.
Herbicide spraying. At 9 dpi, the well infected plants (infection score of 3, sometimes 2) were divided into 3 treatment groups. Group 1, to be sprayed with solvent only, contained 4 plants per test clone (2 plants per negative control) and Groups 2 and 3, to be treated with 13 or 40 g ae/ha, respectively, each consisted of 12 test plants per clone and 2 plants per negative control. […]

Nicotiana benthamiana [2] = test: Cross-resistance testing against six auxin compounds (greenhouse); type: in vivo
From the text: Six compounds, representing five classes of auxin chemistry, were selected for testing the extent of auxinic tolerance of five hit sequences (129965 (SEQ ID NO:10), 130213 (SEQ ID NO: 14), 130294 (SEQ ID NO:360), 130994 (SEQ ID NO:361), and 129870 (SEQ ID NO:359)). The compounds included the following: • 1) quinclorac (BASF Corp., Research Triangle, N.C.) • 2) (2,4-dichlorophenoxy) acetic acid (Dow AgroSciences, Indianapolis, Ind.) • 3) dicamba (Monsanto, St. Louis, Mo.) • 4) benazolin (AgrEvo USA Company, Wilmington, Del.) • 5) picloram (Dow AgroSciences, Indianapolis, Ind.) • 6) 4-amino-3,6-dichloropyridine-2-carboxylic acid (Dow AgroSciences, Indianapolis, Ind.) Compound #6 served as a positive control, as these five sequences were identified for their herbicide tolerant function using this auxin (see Example 9). Compound #1 represents the quinoline carboxylic acid chemical family, #2 is in the phenoxy carboxylic acid class, #3 is benzoic acid chemistry, #4 is unique to any currently defined class, and #5 is in the same family as the positive control, pyridine carboxylic acids.
The protocol was essentially the same as that described in Example 9 for greenhouse evaluations. However, an individual experiment consisted of 200 test plants plus 35 GFP and 35 bar negative control plants inoculated per clone. […] Two doses per auxin were tested, with as many as 12 well-infected test plants and 2 of each of the negative controls per dose.
The six auxin solutions were prepared by dissolving solid compound in General Purpose Solvent (GPS: 97%DMSO: 3% acetone) to achieve the following spray rates (g ae/ha) when using the spray applicator and parameters outlined in Example 9: Compound #1) 200; 2) 42; 3) 64; 4) 200; 5) 10; 6) 10. From each of these solutions, a portion was diluted with an equal volume of GPS, resulting in 1× (“high dose”) and ½× (“low dose”) concentrations for spraying. Before spray application, each auxin solution was mixed with an equal volume of diluent containing surfactants for effective penetration. The diluent was prepared as follows: 420 mL GPS, 460 mL DI water, 120 mL isopropyl alcohol, 10.167 mL Agri-Dex (Helena Chemical Co., Memphis, Tenn.), and 0.167 mL Triton X-155 (Sigma Chemical Co., St. Louis, Mo.). In addition to the 200 and 100 g ae/ha rates tested for Compound #4 (benazolin), a concentration of 250 g ae/ha was also formulated as described above and tested.
Plants were sprayed and evaluated as described in Example 9. FIG. 7 summarizes the sequences tested and the highest dose of the compounds against which tolerance was observed. […] Results are reported in FIG. 7 for each of the trials with each construct.
The positive control (Compound #6) was formulated differently in this set of evaluations from that described in Example 9, for consistency in the solvent/surfactant background from which to compare the activity of the individual sequences against each auxin. Thus, the spray rate used for evaluation was lower than previous experiments, 5 vs. 13 g ae/ha. The need to lower the dose with this formulation to prevent total chlorosis and/or necrosis was likely due to the addition of DMSO, Agri-Dex, and Triton X-155 which were not used in Example 9.

B1: 129870: Poppy cDNA clone; auxin tolerance hit sequence (nucleic acid)
DNA: TTAATTAAGTCGACGAATTCAAATTAGGTCTAAAGATGGCGTCTTTAGCTCAACAATTCTCAGGATTAAGATGCCCACCACTTTCTTCTTCTCATCTAACAAAACCCTTTTCTTCAAAACCCCAGAAAACCACCTTTTCACCTATAGTTTCAGCAGCTGTCATTTCTAATGCACAAACTAAAGAAAGAAGTAGACTTAAAGAAATCTTCGAAGATGCTTATGAAAGATGTAGAACTACTCCAATGCAAGGTGTTGGTTTTACTGTTGATGATTTTCATGCTGCTCTTGAAAAGTATGATTACAATTCTGAGATTGGTACCAGGGTTAAAGGAACTGTGTTCTGTACAGACAACAACGGAGCATTAGTTGACATCACGGCGAAATCTTCAGCCTATTTACCAATCCAAGAGGCATGTATTCACAAAATAAAGCATGTAGAAGAAGCAGGAATAGTTGCAGGCCTACGTGAAGAGTTTGTGATTATTGGAGAGAACCAAGCTGATGATAGCTTGATCTTGAGTTTGCGTTCAATCCAATTTGACCTCGCATGGGAACGGTGTAGACAACTTCAGGCAGAGGATGTCGTCCTCAAGGGTAAGGTTGTTGGTGGAAACAAAGGCGGTGTGGTGGCAATTGTCGAAGGCCTTCGTGGTTTTATTCCATTCTCACAAATATCTTCAAAATCAACCGCGGAAGATCTCATTGATAAGGAGCTTCCTCTGAAATTTGTGGAAGTTGATGAGGAGCAGTCTAGACTTGTCCTCAGTAATCGCAAGGCCATGGCAGACAGCCAGGCACAGCTTGGTATTGGATCAGTTGTCACTGGAACAGTACAGAGTCTTAAGCCATATGGCGCTTTCATCGACATTGGTGGAATCAATGGTCTTCTTCATGTTAGTCAAATTAGTCATGATCGTGTCTCGGATATTGCAACAGTTCTTCAACCCGGCGACACTCTAAAGGTGATGATATTGAGCCACGACCGTGAGAGAGGCCGAGTCAGTCTATCCACCAAAAAGCTAGAGCCTACTCCAGGAGATATGATCCGTAACCCCAAGCTTGTTTTCGAGAAGGCTGAAGAAATGGCTCAGACATTCAGGCAGAGAATAGCTCAAGCAGAAGCTATGGCCCGTGCGGACATGCTGAGATTCCAACCCGAGAGTGGATTGACTCTAAGCTCAGACGGCATCTTAGGTCCCCTGACGCCAGACTTGCCTGCTGAAGGTCTAGATTTGAGCGACATTCCTGCAGCTGATGATGCATAGAAACCAATAAATATGAATTAAATCTGTCTTGACGTTTCTTCTCATCACCATTTTTAGGCTATGTAAGATGGGTCTATAGGTTGTTCAAAGTGTTGACTTGTGTATTTATCTTGATAGTTCAAAGTGTACTTCTTTAAGCGATAATCATTGAAAAGAAAAAATGGAGAAGGTAAAAGATAAAAATATCCAAAAAAAAAAAAAAAAAAAAAAAA
modifications: Poppy
- reproducibility of auxin tolerance from Trial #1 to Trial #2 (Nicotiana benthamiana [1]): reproducible auxin tolerance
- tolerance to picloram (Compound #5) (Nicotiana benthamiana [2]; 10 g ae/ha and 1/2x): demonstrated tolerance to each of the three compounds using the 35% injury threshold
- tolerance to positive control 4-amino-3,6-dichloropyridine-2-carboxylic acid (Compound #6) (Nicotiana benthamiana [2]; 10 g ae/ha and 1/2x (5 g ae/ha)): tolerance consistently occurred at the lower threshold (25% injury or less)
- tolerance to dicamba (Compound #3) (Nicotiana benthamiana [2]; 64 g ae/ha and 1/2x): demonstrated tolerance to each of the three compounds using the 35% injury threshold
- tolerance to quinclorac (Compound #1) (Nicotiana benthamiana [2]; 200 g ae/ha and 1/2x): demonstrated tolerance to each of the three compounds using the 35% injury threshold
- extent of cross-resistance to the six auxin compounds (Nicotiana benthamiana [2]; two trials, two doses per auxin, thresholds 25% or 35% injury or less): tolerance was observed against four compounds
